According to paper PMC3194040:

Target: Recombinant full-length His6-tagged DEG7 (Ser206Ala) (Arabidopsis thaliana)
Assay: SEC

stoichiometry N: 3
Substance: Recombinant full-length His6-tagged DEG7 (Ser206Ala) (enzyme)
